Assay: soluble on expression in E. coli; label from the status in PepcDB or PDB records

**Q.** For “GHMLWARLVGLARLEARALSKKERRSLLERLKPYYTRIPFSEKADLRLVKARTDSGEYEIITVDGVPCLFEWSDGRIYPTLQCLKAFGVDWLKGVVLVDKGAAIALAKGAHLMIPGVVGVEGSFTRGDVVAALYHETRTPVMVGVAEVDSSALEKLYREKARGRAVRRVHRLGDALWELAQEVGKRLSGS”, which “soluble on expression in E. coli” value is on record?
**A.** soluble

**Q.** With “GHMSGFKHVSHVGWDPQNGFDVNNLDPDLRSLFSRAGISEAQLTDAETSKLIYDFIEDQGGLEAVRQEMRRQ” as the sequence, how does the “soluble on expression in E. coli” value read?
**A.** soluble

**Q.** Which “soluble on expression in E. coli” value does the source give for “GHVLLLRPVRSEDVEPLQGVFALMGPQEIRERFAPSATGSSERFQQLTNPNAKREIVLVAAEQLPPGEAMIAALARASIVPNSRHAEYIILVSSFVSGQGLGRQLLRKLVKWARGKYLDHLYGDILERNRPMLELAESLGFQRESHPESPDLVRMTLKL” here?
**A.** not soluble

**Q.** With “GIDPFTRDGPLVLIGSGLSSEQQKMLSELAVILKAKKYTEFDSTVTHVVVPGDAVQSTLKCMLGILNGCWILKFEWVKACLRRKVCEQEEKYEIPEGPRRSRLNREQLLPKLFDGCYFYLWGTFKHHPKDNLIKLVTAGGGQILSRKPKPDSDVTQTINTVAYHARPDSDQRFCTQYIIYEDLCNYHPERVRQGKVWKAPSSWFIDCVMSFELLPLDS” as the sequence, how does the “soluble on expression in E. coli” value read?
**A.** soluble

**Q.** Which “soluble on expression in E. coli” value does the source give for “GISVDKRIEQATSDFLAAAQAIDLQEHLISGYRSVDYQTELYQSYIKKEMANDPTLTQEAAEALVQTYSQPPGASEHHTGLAIDMSTVDTLNASDPSVAKAVQKIAPDYGFVLRFPEGKKTSTGVDYEDWHYRYVGKASARYMAQHNLTLEEYIAALKEKR” here?
**A.** not soluble

**Q.** Which “soluble on expression in E. coli” value does the source give for “GKPFYYDVNFNLADSRAYITKYENPKGLLGDYYVGKEIGEIWGVETLGFFTSEEDIKNHADQSWCTSYPGTRPLAPGDLKFKDENKDGKITDGAWTLEDHGDYKIIGNSRARYTFGLSANAQWNGFDLSLFAQGVGKKDYYPGTGDLYFWGIYAQPWTNITKGNMYDHWTEENPDAYFPRMKAYVAENTDRECGVVQTRYLQNAAYMRLKNLTVGYTLPKVLLNKIGIERLRIFFSGDNLCEFSGLYKHYKVDPESLGNIVYPLQRSYSFGLNVTF” here?
**A.** not soluble

**Q.** With “GKVEERWTKTTDGKQMLSWVIYPVNFDANKKYPTLLFCEGGPQSPVSQFWSYRWNFQIMAANDYIIIAPNRRGLPGFGMEWLEQISGDYGGQCMKDYLSAIDDISKEPYVDTNRLGCVGASFGGFSVYWLAGHHDKRFKAFIAHDGIFNMEQQYLETEEMWFANWDMGGAYWDKNNATAQRTFANSPHRFVDKWDTPILCIHGEKDYRILASQGMSAFNAAVLRGVPAELLLYPDENHWVLKPQNGVLWQRTFFSWLDKWLK” as the sequence, how does the “soluble on expression in E. coli” value read?
**A.** not soluble

**Q.** Which “soluble on expression in E. coli” value does the source give for “GLLAFFMVIAVSVGGLTQIVPLFFQDVTNKPVEGMKPRTALEVEGRDIYIREGCVGCHSQMIRPFRAETERYGHYSVAGESVWDHPFLWGSKRTGPDLARVGGRYSDDWHRAHLYNPRNVVPESKMPSYPWLVENKLDGKDTAKKMEVLRTLGTPYTDADIAGARDAVKGKTEMDAIVAYLQGLGT” here?
**A.** not soluble

**Q.** With “GMAINIIEYNRSYKEELIEFILSIQKNEFNIKIDRDDQPDLENIEHNYLNSGGQFWLAINNHQNIVGTIGLIRLDNNMSALKKMFVDKGYRNLKIGKKLLDKVIMTCKEQNIDGIYLGTIDKFISAQYFYSNNGFREIKRGDLPSSFPKLDVDNRFYYRNLKD” as the sequence, how does the “soluble on expression in E. coli” value read?
**A.** soluble

**Q.** Which “soluble on expression in E. coli” value does the source give for “GMARLKNLPQERPLPLASLIEARENQVLSMALAQSDRVQISLFSFADGESVSEEEYFGDTLYLILQGEAVITFDDQKIDLVPEDVLMVPAHKIHAIAGKGRFKMLQITLIDEER” here?
**A.** soluble

**Q.** For “GMASAIIETAIPQSEMTASATSEEGQDPASSAIDGNINTMWHTKWNGSDALPQSLSVNLGKARKVSSIAITPRTSGNNGFITKYEIHAINNGVETLVAEGTWEENNLVKTVTFDSPIDAEEIKITAIQGVGGFASIAELNVYE”, which “soluble on expression in E. coli” value is on record?
**A.** soluble

**Q.** For “GMCVEKTPWELVIDFHGHTCPDIALGYRIAQLAQREMGIRPAPDSECLVKAYTQSCALDAIQVLNKATIGRHALIIEETHRYMYQFHFTGTQDIHQFTVSPAVLDHLETLRHPDLSPRERQNKVLEGVQYVLTLEESAFCHYDKIPGQLSKIV”, which “soluble on expression in E. coli” value is on record?
**A.** soluble

**Q.** Which “soluble on expression in E. coli” value does the source give for “GMDKYLSANSLEGVIDNEFSMPAPRWLNTYPAGPYRFINREFFIIAYETDPDLLQAILPPDMELLEPVVKFEFIRMPDSTGFGDYTESGQVVPVRYKGEEGGFTISMFLDCHAPIAGGREIWGFPKKLAKPKLFVEEDTLIGILKYGSIDIAIATMGYKHRPLDAEKVLESVKKPVFLLKNIPNVDGTPLVNQLTKTYLTDITVKGAWTGPGSLELHPHALAPISNLYIKKIVSVSHFITDLTLPYGKVVADYLA” here?
**A.** soluble
